# Test results: the DeepSol protein solubility set
# Test: soluble on expression in E. coli; label from the status in PepcDB or PDB records
row,Sequence,soluble on expression in E. coli
1,MDSINTRIAEELSALPSGRVQPQQVAAAVALLDEGSTVPFIARYRKEVTGSLDDTQLRMLEERLRYLRELEERRGAILASIEEQGKLTPELARDIKLADTKTRLEDLYLPYKQKRRTKGQIALEAGLGALADALFDDPTLVPESEAARFVDAEKGFADVKAVLEGAKYILMERFAEDATLLDKLRVFMKNEATLTARVVPGKEQEGAKFSDYFEHDEPLKSAPSHRALAIFRGRNEGVLSASLKVGEEAPGTLHPCEVMIAERFGLSNQGRAADKWLAEVVRWTWKVKLYTHLETDLFGELRDGAEDEAISVFARNLHDLLLAAPAGPRATLGLDPGLRTGVKVAVVDATGKLLDTATVYPHAPKNQWDQTLAVLAALCAKHQVELIAIGNGTASRETDKLAGELIKKYPGMKLTKIMVSEAGASVYSASELAAKEFPELDVSLRGAVSIARRLQDPLAELVKIEPKSIGVGQYQHDVSQLKLARSLDAVVEDCVNAVGVDVNTASAALLARISGLNSTLAQNIVAHRDANGAFRTRDELKKVSRLGEKTFEQAAGFLRVMNGDNPLDASAVHPETYPLVQRIAADTERDIRSLIGDSAFLKRLDPKKFTDETFGLPTVTDILKELDKPGRDPRPEFKTAEFQEGVESLKDLKPGMVLEGVVTNVTNFGAFVDIGVHQDGLVHISALSEKFVKDPYEVVKAGDIVKVKVMEVDIPRNRVGLSMRMSDTPGEKVEGQRGGRPTGSGQPRQERGAPRGQSAPPANNAMAALFANAKQLKKKHHHHHH,soluble
2,VKPPHGFQKKMKLEVVDKRNPMFIRVATVADTDDHRVKVHFDGWNNCYDYWIDADSPDIHPVGWCSKTGHPLQPPLSPLELMEASEHGGCSTPG,soluble
3,MERLSPVFATSKSSNMEVEHWMTSLKEVEKVLDSVEPKLTSSGTKWRVVAQHIKDICSDLNQIFNKEDPRYEVVQAGASAAHDFDVRYLDIHKVRTPHEPLEMRHSKGRKHGREIARLLEKIQKYRQEIEEIKKEYKETDKYRERYDHYKVKLDNLEKKNKDQERIERNQQKFKDAEAAYSSVCADLIQKMETVWKKHVSIFAEAASAVWSTQLQYAKALEAAANPIVPYLQQEEQEEEEEEEAASGTQGRVAEKAYHTNEEKVENSFQKNSAIPPSFRTASEQLTEQSKNINNAKNTSETSPAEDIEA,soluble
4,KQKVINVKEVRLSPTIEEHDFNTKLRNARKFLEKGDKVKATIRFKGRAITHKEIGQRVLDRLSEACADIAVVETAPKMDGRNMFLVLAPKNDNK,soluble
5,MSLRAGTEETERGHTALTVEGIGRRRGSEERETPERGDKEEGKEQVKRETAGGTRSSSPQKQRGKSTTRRLSVAGLSSERTQSNFEIHRELEDQTDDAMSGAGGIDCSMSGTTATVVLHIHALKKLFVAHVGDSRAVIARREHASSRAVAGGSDGFRQETRNDSRMLQQQTSSEPRETAEDRGCRSAGTGTDCRPLSRLMAFDLTNDHKPTNEIEKQRIMKAGGQVRRLEGDVPHRVFLKNRLFPGLAMSRAIGDTIATQAGVIPDPEVRGYQQSQSDEGHHHHHH,soluble
6,MSLNKKIIFFDIDGTLLVHNGKESTIPYSTKEALKKLKEKGHNLFICSGRPIRFAIQEFQEMVDGYICCNGTYIVYNGKCIYNKLIDKDTLKYLIKEFCKLGISASFSGAYNGYSYNMSSEKIHQMNRFYKTENPYILDNWNIEEIEANNVDVFFKNNEHMEKCIKYLEHKLIFNTHKPYLSADVSFKNWDKSKGIEYLVKYMKRDMKDTMAFGDGKNDITMLKTVNIGIAMGNAVDEVKNKADMVTDSAADDGIYNALNKLHLIEGHHHHHH,soluble
7,GETQPESAAFTAPSTDNPIRINFNENPLGMSPKAQAAARDAVVKANRYAKNEILMLGNKLAAHHQVEAPSILLTAGSSEGIRAAIEAYASLEAQLVIPELTYGDGEHFAKIAGMKVTKVKMLDNWAFDIEGLKAAVAAYSGPSIVYLVNPNNPTGTITPADVIEPWIASKPANTMFIVDEAYAEFVNDPRFRSISPMITQGAENIILLKTFSKIHAMAGMRVGYAVAHPTVIALMGRYVAGEKINFSGVDAALASMNDSAFITYSKKSNDVSRQILLKALEDLKLPYLPSEGNFVFHQLVVPLKDYQTHMADAGVLIGRAFPPADNWCRISLGTPQEMQWVADTMREFRKKSWI,soluble
8,MAADRNTGHTEEDKLDVLKSTQTVIHKALEKLGYPEEVYELLKEPMRLLTVKIPVRMDDGSVKIFTGYRAHNDSVGPTKGGIRFHPNVTEKEVKALSIWMSLKCGIIDLPYGGGKGGIVCDPRDMSFRELERLSRGYVRAISQIVGPTKDVPAPDVFTNSQIMAWMMDEYSRIDEFNSPGFITGKPLVLGGSHGRESATAKGVTICIKEAAKKRGIDIKGARVVVQGFGNAGSYLAKFMHDAGAKVVGISDAYGGLYDPEGLDIDYLLDRRDSFGTVTKLFNDTITNQELLELDCDILVPAAIENQITEENAHNIRAKIVVEAANGPTTLEGTKILSDRDILLVPDVLASAGGVTVSYFEWVQNNQGFYWSEEEVEEKLEKMMVKSFNNIYEMANNRRIDMRLAAYMVGVRKMAEASRFRGWI,soluble
9,MGSDKIHHHHHHMMKISFIIATLNSGGAERALVTLANALCKEHEVSIIKFHAGESFYKLENEVKVTSLEQFRFDTLYHKIASRFKKFFALRKALKESKSDVFISFLDTTNIACIAAKIGLKTPLIISEHSNEAYLKPKIWRFLRRVSYPFCDALSVLGSSDKVYYERFVKRVKLLLNPCHFSDEISFDSSFEKENLVLFIGRLDHNKNPVMFLKAIAHLDKNLQENYKFVIAGDGQLRQELEYKVKSLGIKVDFLGRVENVKALYEKAKVLCLCSFVEGLPTVLIESLYFEVCRISSSYYNGAKDLIKDNHDGLLVGCDDEIALAKKLELVLNDENFRKELVNNAKQRCKDFEISHIKEEWLKLIAEVKNA,not soluble
10,MASNVSLTGLAHDLKQRAENHPPIRIGLIGCGEMGTDLLSSIAHMDGITVAAVATRTPSRIFDAARLAYGEEGHVREVENASALTRTIEKGLIAATNDIDLVLRHEQIDIIVDATGYPEAGAEIGFKALENNKNLVMMNVEADVTIGAYLKHEAEKQGLIYTLGAGDEPTSCMELIEFVSALGHKI,not soluble
11,MAHHHHHHMSELQAAAGVFGRGTAAGDAIYRCYARPTKESTLDPELLARLQKMRLEREAAEAALFRPKPVPKSKAMISRPRVGLGRRISEEEIARRRLDALPHKKREESIQRELRAFGRPSLLPPLYKSPPITVAEKERLRQIFQFGELPPKPLNFTGANRVRYALIDRRFRLKDRFETLKKHVDALREELRQLRQQPQKSALPETVADGKGNENEIIPSGAEIIRRFHRRDPVMALERRMLEQELTTSIGEVLQEMKEIDFDLRQLDENEAKRYIPKP,not soluble
12,MARLSQEIILDMAEQIIYEKGMEKTTLYDIAGNLNVTHAALYKHYRNKEDLFQKLALRWLEETSREIFAWTKEKDASPDDALHDWLWLLADTKKTLYKTDRKMFLLYTDYIEQKEELVKNHIEHLAQKAEEVSGRVNQGDAIITAFIYFHNPYFASRWEKAGYVELFERVWQVVR,not soluble
13,MYAKSLNGDAFSNEAKQKAIELIKQDLGQIDLVVYSLASPVRKMPDTGELVRSALKPIGETYTSTAVDTNKDVIIEASVEPATEQEIADTVTVMGGQDWELWIQALEEAGVLAEGCKTVAYSYIGTELTWPIYWDGALGRAKMDLDRAATALNEKLAAKGGTANVAVLKSVVTQASSAIPVMPLYIAMVFKKMREQGVHEGCMEQIYRMFSQRLYKEDGSAPEVDDHNRLRLDDWELRDDIQQHCRDLWPQITTENLRELTDYDMYKEEFIKLFGFGIEGIDYDADVNPEVEFDVIDIE,not soluble
14,MYVVINIDPGSTLNELMAFMTQKTITFSVTDQLSRLCDRTANGDRREVCTQTDDNCFDPPPNKKSKGYNGEDYGSPCSSATPSEPVDLGILTKTNGNSNGNHNWDTESKVLRGLIRSENGRSKSSIKEEPEEASVEDDISTEYMQNQLMQALFPKNQNGSGLANFASLEDNESIEGESGGLSDLGGFNMDSSSPASAIRYKPAYASTKRGVCRVCNREVSLITTHRRRHAITHLGFKTLKCALCYKFFSRQDLATGHFKKDHPTSEFMPFVDTMSPEDERQLVVMMELCFPEETGPRKRKDTDPKKQKVGEVEDSF,not soluble
